We go through 2 molecules from paper PMC6010752, “Development of GMP‐1 a molecular chaperone network modulator protecting mitochondrial function and its assessment in fly and mice models of Alzheimer's disease” (Journal of Cellular and Molecular Medicine, 2018).

Ends that are not written are not given here.

For experiment [1], the target named is T1, Tom34 (Homo sapiens, UniProt Q15785).
T1 construct: gene TOMM34; full-length (Gst-tag-free)
T1 sequence (Q15785 1-309): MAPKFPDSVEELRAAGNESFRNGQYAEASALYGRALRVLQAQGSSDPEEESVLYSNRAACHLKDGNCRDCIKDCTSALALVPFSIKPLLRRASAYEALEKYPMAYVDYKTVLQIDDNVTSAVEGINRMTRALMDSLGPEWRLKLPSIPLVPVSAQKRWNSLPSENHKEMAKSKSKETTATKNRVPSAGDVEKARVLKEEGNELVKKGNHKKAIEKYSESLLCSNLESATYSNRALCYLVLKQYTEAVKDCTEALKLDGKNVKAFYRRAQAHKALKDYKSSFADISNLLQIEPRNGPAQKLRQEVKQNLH
As to the kind of experiment: dot-blot competition of Hsp90 C-terminal peptide-HRP (C90-HRP) with purified protein. Format: binding.

The target in the next experiment is T2, Tom70 (Homo sapiens, UniProt O94826).
T2 construct: gene TOMM70; cytoplasm-exposed domain of Tom70, amino acids 65-608 (Gst-tag-free)
T2 sequence (O94826 65-608): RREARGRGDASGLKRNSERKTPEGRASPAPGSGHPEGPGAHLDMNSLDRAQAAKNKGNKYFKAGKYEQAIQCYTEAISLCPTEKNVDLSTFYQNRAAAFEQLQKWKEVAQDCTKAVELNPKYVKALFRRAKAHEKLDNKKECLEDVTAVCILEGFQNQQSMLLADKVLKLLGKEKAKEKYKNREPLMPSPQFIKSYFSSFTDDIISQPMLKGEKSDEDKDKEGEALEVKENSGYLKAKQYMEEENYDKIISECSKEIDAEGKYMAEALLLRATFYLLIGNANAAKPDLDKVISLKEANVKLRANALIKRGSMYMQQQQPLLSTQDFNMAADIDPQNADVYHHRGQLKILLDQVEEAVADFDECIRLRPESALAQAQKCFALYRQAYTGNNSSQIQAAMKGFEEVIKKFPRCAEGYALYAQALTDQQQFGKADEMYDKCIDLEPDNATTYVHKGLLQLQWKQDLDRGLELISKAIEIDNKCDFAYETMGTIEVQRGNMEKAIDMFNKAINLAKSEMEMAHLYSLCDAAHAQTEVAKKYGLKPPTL
The experiment is described as above. Format: binding.

Experiment [2] has as its target T3, FKBP51 (Homo sapiens, UniProt Q13451).
T3 construct: gene FKBP5; full-length (Gst-tag-free)
T3 sequence (Q13451 1-457): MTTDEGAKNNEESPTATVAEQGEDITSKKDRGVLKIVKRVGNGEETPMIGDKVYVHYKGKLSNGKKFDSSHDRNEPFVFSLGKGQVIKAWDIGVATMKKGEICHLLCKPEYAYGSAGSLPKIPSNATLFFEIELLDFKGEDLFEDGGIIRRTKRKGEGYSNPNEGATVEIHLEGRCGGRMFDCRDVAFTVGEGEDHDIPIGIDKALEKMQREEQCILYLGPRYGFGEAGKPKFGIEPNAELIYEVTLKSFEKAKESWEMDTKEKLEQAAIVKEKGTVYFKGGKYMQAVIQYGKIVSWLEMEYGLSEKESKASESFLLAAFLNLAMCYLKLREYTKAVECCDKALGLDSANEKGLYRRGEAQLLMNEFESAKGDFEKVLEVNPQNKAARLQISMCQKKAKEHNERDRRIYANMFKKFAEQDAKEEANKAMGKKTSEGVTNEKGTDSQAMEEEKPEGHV
The experiment is described as above. In kind it is binding.

Experiment [3] addresses T4, Tom70, cytoplasm‐exposed domain, amino acids 65‐608 (human, UniProt O94826 65-608).
T4 construct: Tom70, human, mitochondrial import receptor, cytoplasm‐exposed domain, amino acids 65‐608; Cloned into a pGEX6 vector; cDNA from the IMAGE consortium; also called human Tom70 protein; source: E. coli BL21, purified (Gst‐trap 4B), Gst removed with PreScission protease
T4 sequence (looked up): T2 sequence (O94826 65-608)
The experiment is described as follows: far-Western, overlay or dot blot; Gst‐tag‐free proteins applied to nitrocellulose membrane, blocked with 3% BSA in TBS‐T; C90‐HRP (1 × 500 dilution) incubated for 1 hour; ECL signal; with DMSO or increasing concentrations of the compound GMP‐1. Conditions: both partners purified.

Experiment [4] deals with T5, FKBP51 (human, UniProt Q13451 1-457).
T5 construct: FKBP51, human TPR protein, full length; Cloned into a pGEX6 vector; cDNA from the IMAGE consortium; source: E. coli BL21, purified (Gst‐trap 4B), Gst removed with PreScission protease
T5 sequence (looked up): T3 sequence (Q13451 1-457)
Described as above. The following applies: both partners purified.

The next experiment addresses T6, PP5 (human, UniProt P53041 1-499).
T6 construct: PP5, human TPR protein, full length; Cloned into a pGEX6 vector; cDNA from the IMAGE consortium; source: E. coli BL21, purified (Gst‐trap 4B), Gst removed with PreScission protease
T6 sequence (looked up): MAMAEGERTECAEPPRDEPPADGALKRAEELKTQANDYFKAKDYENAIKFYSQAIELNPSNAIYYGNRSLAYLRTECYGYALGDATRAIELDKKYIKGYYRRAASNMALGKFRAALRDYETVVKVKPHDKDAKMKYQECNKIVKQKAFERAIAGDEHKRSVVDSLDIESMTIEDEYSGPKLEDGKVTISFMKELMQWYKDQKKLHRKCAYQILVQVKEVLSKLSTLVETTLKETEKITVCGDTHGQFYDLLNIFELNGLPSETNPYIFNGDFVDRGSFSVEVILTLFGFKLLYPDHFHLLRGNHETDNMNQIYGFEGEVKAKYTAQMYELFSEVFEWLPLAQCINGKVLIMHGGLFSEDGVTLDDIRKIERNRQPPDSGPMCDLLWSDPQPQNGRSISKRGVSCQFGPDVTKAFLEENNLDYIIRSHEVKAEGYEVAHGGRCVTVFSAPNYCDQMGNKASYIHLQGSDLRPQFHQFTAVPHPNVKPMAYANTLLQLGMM
Described as above. Conditions: both partners purified.

Experiment [5] addresses T7, Tom34 (human, UniProt Q15785 1-309).
T7 construct: Tom34, human TPR protein, full length; Cloned into a pGEX6 vector; cDNA from the IMAGE consortium; source: E. coli BL21, purified (Gst‐trap 4B), Gst removed with PreScission protease
T7 sequence (looked up): T1 sequence (Q15785 1-309)
Described as above. Conditions: both partners purified.

For `COCc1cc(O)n2c(n1)nc1ccccc12` [GMP-1, 2‐(methoxymethyl)pyrimido[1,2‐a]benzimidazol‐4‐ol], the IC50 on Tom34 [1] worked out at 180 µM; on Tom70, 45 µM; at FKBP51 [2] it was 150 µM.

B1: Peptide of 6 × His tag and the 10 C‐terminal amino acids of human Hsp90 alpha, coupled to HRP (C90‐HRP) (peptide)
peptide: HHHHHHDDTSRMEEVD-OH
modifications: also: coupled to horse-radish peroxidase (HRP)
notes: 10 amino acids of the C‐terminus of human Hsp90 alpha; also called Hsp90‐derived peptide; Hsp90 peptide conjugated to HRP; source: synthetic peptide (GL Biochem, Shanghai), coupled to HRP with the Lightning‐link HRP labeling kit; not shown: His6, N-terminal, kept
Turning to B1, the binding result (in experiment [3]; with FKBP51 [4]; with PP5; with Tom34 [5]) was “binds” each time.

What is called IC50 is the concentration that gives 50% inhibition. A low value points to greater potency in that assay.
